{"source": "patent US20150239933A1", "about": "(GEORGETOWN UNIVERSITY, published 2015)", "binders": {"B1": {"name": "Human recombinant TUBB3 (other)", "chain": "MREIVHIQAGQCGNQIGAKFWEVISDEHGIDPSGNYVGDSDLQLERISVYYNEASSHKYVPRAILVDLEPGTMDSVRSGAFGHLFRPDNFIFGQSGAGNNWAKGHYTEGAELVDSVLDVVRKECENCDCLQGFQLTHSLGGGTGSGMGTLLISKVREEYPDRIMNTFSVVPSPKVSDTVVEPYNATLSIHQLVENTDETYCIDNEALYDICFRTLKLATPTYGDLNHLVSATMSGVTTSLRFPGQLNADLRKLAVNMVPFPRLHFFMPGFAPLTARGSQQYRALTVPELTQQMFDAKNMMAACDPRHGRYLTVATVFRGRMSMKEVDEQMLAIQSKNSSYFVEWIPNNVKVAVCDIPPRGLKMSSTFIGNSTAIQELFKRISEQFTAMFRRKAFLHWYTGEGMDEMEFTEAESNMNDLVSEYQQYQDATAEEEGEMYEDDEEESEAQGPK", "notes": "Bought protein; immobilised by amine coupling in SPR, in solution in the dot blot; also called tubulin β-3; Tubulin β-3"}, "B2": {"name": "tubulin α1A/1B C-terminal tail (CTT) peptide, tyrosinated isoform (peptide)", "peptide": "EGEGEEEGEEY", "notes": "Synthetic peptide from GenScript; also called α1A/1B tyrosinated isoform"}, "B3": {"name": "tubulin α1A/1B C-terminal tail (CTT) peptide, detyrosinated isoform (peptide)", "peptide": "EGEGEEEGEE", "notes": "Synthetic peptide from GenScript; also called α1A/1B detyrosinated isoform"}, "B4": {"name": "tubulin α1A/1B C-terminal tail (CTT) peptide, more basic variant EGEGEEEGQQ (peptide)", "peptide": "EGEGEEEGQQ", "notes": "Synthetic variant peptide from GenScript; also called α1A/1B more basic"}, "B5": {"name": "tubulin α1A/1B C-terminal tail (CTT) peptide, more basic variant EGEGEEEGQQQ (peptide)", "peptide": "EGEGEEEGQQQ", "notes": "as for B4"}, "B6": {"name": "tubulin α1A/1B C-terminal tail (CTT) peptide, more basic variant EGEGEEEGQQQQ (peptide)", "peptide": "EGEGEEEGQQQQ", "notes": "as for B4"}, "B7": {"name": "tubulin α4 C-terminal tail (CTT) peptide, tyrosinated isoform (peptide)", "peptide": "EDEDEGEEY", "notes": "Synthetic peptide from GenScript; also called α4 tyrosinated isoform"}, "B8": {"name": "tubulin α4 C-terminal tail (CTT) peptide, detyrosinated isoform (peptide)", "peptide": "EDEDEGEE", "notes": "Synthetic peptide from GenScript; also called α4 detyrosinated isoform"}, "B9": {"name": "tubulin α4 C-terminal tail (CTT) peptide, Δ2 isoform (peptide)", "peptide": "EDEDEGE", "notes": "Synthetic peptide from GenScript; also called α4 Δ2 isoform"}}, "key": {"[1]": {"biological_target": "T1, assembled microtubules (containing ~25% of TUBB3) (porcine, UniProt F1S6M7 41-471)", "T1 construct": "also called assembled MTs; MTs", "assay": "SPR Biacore T200, 60 sec injection of 10 uM over immobilised microtubules, reference-subtracted"}, "Human recombinant TUBB3": {"biological_target": "B1", "assay": "SPR (Biacore T200), recombinant TUBB3 amine-coupled to a CM5 chip, peptide as analyte at 625 nM to 20 µM"}, "gp120MN [2]": {"biological_target": "T2, gp120MN (HIV, UniProt P05877 32-513)", "T2 construct": "Bought protein; only its gp120 part would apply; also called GP-MN", "assay": "SPR Biacore T200, TUBB3 immobilised, 1:1 model; mean of two experiments", "protocol": "(§1) After ligand capture, the surfaces were deactivated by injecting 1 M ethanolamine for 720 sec at 10 μL/min. HBS-P (10 mM HEPES, pH7.4, 150 mM NaCl, 0.05% P-20) with 2 mM MgCl₂ used as the running buffer. Flow cell 1 on each chip was left empty and used for reference surface. […] Kinetic studies were performed by injecting different concentrations of the analytes in triplicate. The chip surface was regenerated by with 10 mM glycine pH 1.5 injected for 30 sec at a flow rate of 100 μL/min. Each sample was injected for 60 sec (contact time) followed by a dissociation time of 300 sec at a flow rate of 100 μL/min. Data was analyzed with BIACORE® T200™ Evaluation Software (version 1) to determine the equilibrium dissociation constant (KD) from a 1:1 binding model.\n(§2) Recombinant TUBB3, tubulin dimer, and assembled MTs from bovine brains were immobilized on a BIACORE® CM5 chip by amine coupling. […] The kinetics of interaction was analyzed using a BIACORE® T200™ instrument. BiaEvaluation software was used to calculate binding affinities based on 1:1 binding model."}, "gp120IIIB [3]": {"biological_target": "T3, gp120IIIB (HIV, UniProt P04578 33-511)", "T3 construct": "Bought protein", "assay": "SPR Biacore T200, TUBB3 immobilised, 1:1 model; mean of two experiments", "protocol": "as §1, §2"}, "gp120MN [4]": {"biological_target": "T2, gp120MN", "assay": "SPR Biacore T200, TUBB3 amine-coupled to CM5, gp120 3.13-100 nM as analyte, 1:1 model; one of two experiments"}, "gp120IIIB [5]": {"biological_target": "T3, gp120IIIB", "assay": "SPR Biacore T200, TUBB3 amine-coupled to CM5, gp120 3.13-100 nM as analyte, 1:1 model; one of two experiments"}, "gp120IIIB [6]": {"biological_target": "T3, gp120IIIB", "assay": "dot blot: 2 µg peptide spotted, 5 µg gp120IIIB in 20 mL, anti-gp120 antibody", "protocol": "Dot blot analysis: CTTs or Helix-A and -B peptides (2 μg each) were spotted on a nitrocellulose membrane and allowed to dry. […] The membranes were washed and then incubated with a mouse anti-gp120 antibody (1:1000; Immunodiagnostics, Inc.) or mouse anti-TUBB3 antibody (1:5000; Covance, NJ) in TBST for 2 hours. Membranes were washed and incubated in goat anti-mouse HP-conjugated secondary antibody (1:20,000; Jackson ImmunoResearch Laboratories, Inc., PA). Visualization of the bands was then accomplished by the addition of PIERCE® SUPERSIGNAL™ West Pico-Stable Peroxidase Solution and Luminol/Enhancer Solution (Pierce Biotechnology, Inc., Rockford, Ill.).\nFollowing incubation with a corresponding HRP-conjugated secondary antibody 1 hour at RT, the immunocomplexes were visualized with chemiluminescence."}}, "note": "Several values for one entry are separate records, joined by “and”; a condition that tells them apart may be missing. Equal entries are not always repeated."}
{"binder": "RAKWNNTLKQIASK (Synthetic peptide from GenScript)", "note": "[Helix-B peptide]", "values": [{"measurement": "response (4-1) RU", "setting": "[1]", "value": 0.2, "unit": "RU"}, {"measurement": "binding result", "setting": "Human recombinant TUBB3", "value": "no binding (tested: 20 µM)"}]}
{"binder": "B1", "values": [{"measurement": "Kd", "setting": "gp120MN [2]", "value": 740, "unit": "nM"}, {"measurement": "Kd", "setting": "gp120IIIB [3]", "value": 7.5, "unit": "nM"}, {"measurement": "Kd", "setting": "gp120MN [4]", "value": "901 nM and 579 nM"}, {"measurement": "Kd", "setting": "gp120IIIB [5]", "value": "7.91 nM and 7.05 nM"}]}
{"binder": "B2", "values": [{"measurement": "binding result", "setting": "gp120IIIB [6]", "value": "no binding"}]}
{"binder": "B3", "values": [{"measurement": "binding result", "setting": "gp120IIIB [6]", "value": "no binding"}]}
{"binder": "B4", "values": [{"measurement": "binding result", "setting": "gp120IIIB [6]", "value": "no binding"}]}
{"binder": "B5", "values": [{"measurement": "binding result", "setting": "gp120IIIB [6]", "value": "no binding"}]}
{"binder": "B6", "values": [{"measurement": "binding result", "setting": "gp120IIIB [6]", "value": "no binding"}]}
{"binder": "B7", "values": [{"measurement": "binding result", "setting": "gp120IIIB [6]", "value": "no binding"}]}
{"binder": "B8", "values": [{"measurement": "binding result", "setting": "gp120IIIB [6]", "value": "no binding"}]}
{"binder": "B9", "values": [{"measurement": "binding result", "setting": "gp120IIIB [6]", "value": "no binding"}]}
{"binder": "EEEEGEDEA (Synthetic peptide from GenScript)", "note": "[tubulin β2A/2B C-terminal tail (CTT) peptide]", "values": [{"measurement": "binding result", "setting": "gp120IIIB [6]", "value": "no binding"}]}
